Values of other authors in article PMC10103170.

Target: Ubiquitin (Homo sapiens) (UniProt P0CG48)

Chain of ALIX V domain (Q8WUM4 360-702): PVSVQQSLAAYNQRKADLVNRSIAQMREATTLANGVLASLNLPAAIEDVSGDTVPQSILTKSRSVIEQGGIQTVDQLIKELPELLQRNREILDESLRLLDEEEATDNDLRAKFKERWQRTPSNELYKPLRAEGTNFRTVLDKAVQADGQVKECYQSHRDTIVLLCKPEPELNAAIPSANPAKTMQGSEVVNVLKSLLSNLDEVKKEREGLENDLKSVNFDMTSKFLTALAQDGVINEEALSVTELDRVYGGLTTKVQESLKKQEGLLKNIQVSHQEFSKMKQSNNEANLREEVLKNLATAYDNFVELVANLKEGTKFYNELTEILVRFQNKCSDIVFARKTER

ALIX V domain (from UniProt Q8WUM4)
Kd: 120 µM
